The values below are quoted from earlier work in publication PMC3385930.

In general, Kd refers to the concentration at which binding is half-saturated.

In series [1] the target is Band 3 (Homo sapiens) (UniProt P02730).
Series [2] deals with Adducin (Homo sapiens) (UniProt P35611).

UniProt P02730, sequence (P02730 whole entry): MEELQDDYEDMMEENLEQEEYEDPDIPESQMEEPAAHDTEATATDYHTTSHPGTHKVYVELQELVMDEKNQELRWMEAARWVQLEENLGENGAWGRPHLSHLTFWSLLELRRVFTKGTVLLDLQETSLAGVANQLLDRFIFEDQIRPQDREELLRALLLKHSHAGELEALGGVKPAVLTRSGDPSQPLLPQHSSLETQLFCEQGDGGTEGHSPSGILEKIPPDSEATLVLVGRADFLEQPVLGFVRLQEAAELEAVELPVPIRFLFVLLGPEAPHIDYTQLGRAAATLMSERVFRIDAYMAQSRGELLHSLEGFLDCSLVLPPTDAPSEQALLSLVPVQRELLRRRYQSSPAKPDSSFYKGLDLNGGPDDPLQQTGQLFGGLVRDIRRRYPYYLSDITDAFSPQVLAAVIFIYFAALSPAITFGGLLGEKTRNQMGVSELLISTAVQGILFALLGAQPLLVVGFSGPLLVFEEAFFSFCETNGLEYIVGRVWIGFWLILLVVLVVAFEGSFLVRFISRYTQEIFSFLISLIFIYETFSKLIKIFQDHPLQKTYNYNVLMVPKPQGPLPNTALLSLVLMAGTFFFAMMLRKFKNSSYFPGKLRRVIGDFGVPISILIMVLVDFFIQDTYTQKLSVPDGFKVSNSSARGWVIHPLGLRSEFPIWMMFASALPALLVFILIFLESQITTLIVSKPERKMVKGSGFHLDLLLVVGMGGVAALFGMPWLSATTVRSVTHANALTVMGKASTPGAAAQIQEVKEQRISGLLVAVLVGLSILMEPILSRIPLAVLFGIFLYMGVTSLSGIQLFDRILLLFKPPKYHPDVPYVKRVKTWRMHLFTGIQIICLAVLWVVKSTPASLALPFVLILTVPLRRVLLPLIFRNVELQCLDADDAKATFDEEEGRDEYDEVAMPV

As for Adducin (from UniProt P35611), in series [1], the Kd was 100 nM.
Take Stomatin (from UniProt P27105): in series [2], the Kd was 100 nM.
